Results published in US20050064518A1.

Legend:
monoclonal antibody 7G10 = assay: ELISA competition: shed CA 125/O772P at 25-fold excess against 7G10 binding to plate-bound O772P 3-repeat
[1] = biological target: monoclonal antibody 117.1; assay: ELISA competition: shed CA 125/O772P at 25-fold w/w excess against antibody binding to plate-bound O772P 3-repeat
[2] = biological target: monoclonal antibody 501.1; assay: as above
[3] = biological target: monoclonal antibody 776.1; assay: as above
[4] = biological target: monoclonal antibody 368.1; assay: as above
monoclonal antibody 368.1, sequence (chain, as listed by the source, chain 1 of 2): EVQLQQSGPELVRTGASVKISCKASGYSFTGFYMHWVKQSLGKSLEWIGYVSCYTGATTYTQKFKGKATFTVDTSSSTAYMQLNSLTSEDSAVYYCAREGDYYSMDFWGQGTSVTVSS
monoclonal antibody 368.1, sequence (chain, as listed by the source, chain 2 of 2): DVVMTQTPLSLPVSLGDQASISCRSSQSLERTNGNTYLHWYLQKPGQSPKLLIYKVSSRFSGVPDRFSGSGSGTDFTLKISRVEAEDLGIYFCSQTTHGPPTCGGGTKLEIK

OC125 = assay: as above
OC125, sequence (chain, as listed by the source, chain 1 of 2): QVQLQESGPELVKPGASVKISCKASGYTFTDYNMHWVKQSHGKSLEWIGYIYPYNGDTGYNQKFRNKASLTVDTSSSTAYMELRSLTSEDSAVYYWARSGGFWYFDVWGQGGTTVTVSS
OC125, sequence (chain, as listed by the source, chain 2 of 2): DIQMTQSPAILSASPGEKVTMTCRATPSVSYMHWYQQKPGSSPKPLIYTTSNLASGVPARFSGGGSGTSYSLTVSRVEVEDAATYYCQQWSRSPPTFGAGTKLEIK

[5] = biological target: monoclonal antibody 621.1; assay: ELISA competition: shed CA 125/O772P at 25-fold excess against 621.1 binding to plate-bound O772P 3-repeat
monoclonal antibody 4E7 = assay: ELISA competition: shed CA 125/O772P at 25-fold excess against 4E7 binding to plate-bound O772P 3-repeat
[6] = biological target: monoclonal antibody 725.1; assay: ELISA competition: shed CA 125/O772P at 25-fold excess against 725.1 binding to plate-bound O772P 3-repeat
monoclonal antibody 725.1, sequence (chain, as listed by the source, chain 1 of 2): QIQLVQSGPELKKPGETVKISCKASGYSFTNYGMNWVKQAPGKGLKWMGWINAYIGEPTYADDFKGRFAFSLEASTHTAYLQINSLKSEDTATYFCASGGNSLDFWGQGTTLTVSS
monoclonal antibody 725.1, sequence (chain, as listed by the source, chain 2 of 2): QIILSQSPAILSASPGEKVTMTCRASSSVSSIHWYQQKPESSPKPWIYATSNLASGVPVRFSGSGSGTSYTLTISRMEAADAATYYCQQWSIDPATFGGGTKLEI

[7] = biological target: monoclonal antibody 446.1; assay: ELISA competition: shed CA 125/O772P at 25-fold excess against 446.1 binding to plate-bound O772P 3-repeat
monoclonal antibody 8B5 = assay: ELISA competition: shed CA 125/O772P at 25-fold excess against 8B5 binding to plate-bound O772P 3-repeat
monoclonal antibody 7F10 = assay: ELISA competition: shed CA 125/O772P at 25-fold excess against 7F10 binding to plate-bound O772P 3-repeat
[8] = biological target: monoclonal antibody 117.1; assay: flow cytometry competition (representative plot): shed CA 125/O772P against 117.1 binding to OVCAR-3 cells
monoclonal antibody 8E3 = assay: ELISA competition: shed CA 125/O772P at 25-fold excess against 8E3 binding to plate-bound O772P 3-repeat
monoclonal antibody 8G9 = assay: ELISA competition: shed CA 125/O772P at 25-fold excess against 8G9 binding to plate-bound O772P 3-repeat
monoclonal antibody 7H1 = assay: ELISA competition: shed CA 125/O772P at 25-fold excess against 7H1 binding to plate-bound O772P 3-repeat
monoclonal antibody 8C3 = assay: ELISA competition: shed CA 125/O772P at 25-fold excess against 8C3 binding to plate-bound O772P 3-repeat
monoclonal antibody 7C6 = assay: ELISA competition: shed CA 125/O772P at 25-fold excess against 7C6 binding to plate-bound O772P 3-repeat
monoclonal antibody 7A11 = assay: ELISA competition: shed CA 125/O772P at 25-fold excess against 7A11 binding to plate-bound O772P 3-repeat
monoclonal antibody 16H9 = assay: ELISA competition: shed CA 125/O772P at 25-fold excess against 16H9 binding to plate-bound O772P 3-repeat
monoclonal antibody 16H9, sequence (chain, as listed by the source, chain 1 of 2): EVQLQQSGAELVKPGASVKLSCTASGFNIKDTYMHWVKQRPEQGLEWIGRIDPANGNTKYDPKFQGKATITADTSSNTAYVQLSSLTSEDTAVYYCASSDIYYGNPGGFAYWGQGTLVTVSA
monoclonal antibody 16H9, sequence (chain, as listed by the source, chain 2 of 2): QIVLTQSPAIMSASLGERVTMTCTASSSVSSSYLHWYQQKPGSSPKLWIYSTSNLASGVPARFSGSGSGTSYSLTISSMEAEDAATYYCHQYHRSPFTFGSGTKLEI

monoclonal antibody 15C9 = assay: ELISA competition: shed CA 125/O772P at 25-fold excess against 15C9 binding to plate-bound O772P 3-repeat
[9] = biological target: monoclonal antibody 654.1; assay: ELISA competition: shed CA 125/O772P at 25-fold excess against 654.1 binding to plate-bound O772P 3-repeat
[10] = biological target: monoclonal antibody 633.1; assay: ELISA competition: shed CA 125/O772P at 25-fold excess against 633.1 binding to plate-bound O772P 3-repeat
[11] = biological target: monoclonal antibody 325.1; assay: ELISA competition: shed CA 125/O772P at 25-fold excess against 325.1 binding to plate-bound O772P 3-repeat
monoclonal antibody 8A1 = assay: ELISA competition: shed CA 125/O772P at 25-fold excess against 8A1 binding to plate-bound O772P 3-repeat
monoclonal antibody 16C7 = assay: ELISA competition: shed CA 125/O772P at 25-fold excess against 16C7 binding to plate-bound O772P 3-repeat
M11 = assay: flow cytometry competition (representative plot): shed CA 125/O772P against M11 binding to OVCAR-3 cells

monoclonal antibody 117.1, sequence (chain, as listed by the source, chain 1 of 2): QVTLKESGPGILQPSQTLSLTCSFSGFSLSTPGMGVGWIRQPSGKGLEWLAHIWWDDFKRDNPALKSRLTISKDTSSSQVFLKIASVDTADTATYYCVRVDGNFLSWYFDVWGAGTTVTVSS
monoclonal antibody 117.1, sequence (chain, as listed by the source, chain 2 of 2): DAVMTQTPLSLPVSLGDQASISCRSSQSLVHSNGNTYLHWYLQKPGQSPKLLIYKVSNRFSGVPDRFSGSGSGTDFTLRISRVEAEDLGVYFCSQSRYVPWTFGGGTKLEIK
monoclonal antibody 501.1, sequence (chain, as listed by the source, chain 1 of 2): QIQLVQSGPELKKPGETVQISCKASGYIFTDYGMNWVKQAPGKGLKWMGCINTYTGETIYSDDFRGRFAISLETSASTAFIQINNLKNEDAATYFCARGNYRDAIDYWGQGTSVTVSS
monoclonal antibody 501.1, sequence (chain, as listed by the source, chain 2 of 2): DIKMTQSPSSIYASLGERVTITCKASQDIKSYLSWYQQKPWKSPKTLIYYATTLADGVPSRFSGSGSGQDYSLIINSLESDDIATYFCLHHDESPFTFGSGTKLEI
monoclonal antibody 776.1, sequence (chain, as listed by the source, chain 1 of 2): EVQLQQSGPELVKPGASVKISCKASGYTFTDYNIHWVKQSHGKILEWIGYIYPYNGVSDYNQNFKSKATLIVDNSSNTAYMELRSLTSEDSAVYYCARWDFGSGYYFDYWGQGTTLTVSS
monoclonal antibody 776.1, sequence (chain, as listed by the source, chain 2 of 2): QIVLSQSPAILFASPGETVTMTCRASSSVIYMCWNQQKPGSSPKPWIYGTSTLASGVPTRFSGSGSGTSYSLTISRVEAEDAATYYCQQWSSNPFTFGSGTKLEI

% inh. binding (monoclonal antibody 7G10): 3% | percent inhibition of binding [1]: 11% | percent inhibition of binding [2]: 15% | percent inhibition of binding [3]: 17% | percent inhibition of binding [4]: 0% | percent inhibition of binding (OC125): 95% | % inh. binding [5]: 2% | % inh. binding (monoclonal antibody 4E7): 7% | % inh. binding [6]: 7% | % inh. binding [7]: 7% | % inh. binding (monoclonal antibody 8B5): 6% | % inh. binding (monoclonal antibody 7F10): 6% | IC50 [8]: > 1000 µg/mL | % inh. binding (monoclonal antibody 8E3): 4% | % inh. binding (monoclonal antibody 8G9): 7% | % inh. binding (monoclonal antibody 7H1): 4% | % inh. binding (monoclonal antibody 8C3): 5% | % inh. binding (monoclonal antibody 7C6): 2% | % inh. binding (monoclonal antibody 7A11): 5% | % inh. binding (monoclonal antibody 16H9): 0% | % inh. binding (monoclonal antibody 15C9): 5% | % inh. binding [9]: 9% | % inh. binding [10]: 7% | % inh. binding [11]: 2% | % inh. binding (monoclonal antibody 8A1): 8% | % inh. binding (monoclonal antibody 16C7): 3% | IC50 (M11): 3 µg/mL
Substance: shed CA 125/O772P polypeptide, Q8WXI7 1-14401
